{
  "source": "paper PMC5422739",
  "about": "“Leptospira Immunoglobulin-Like Protein B Interacts with the 20th Exon of Human Tropoelastin Contributing to Leptospiral Adhesion to Human Lung Cells” (Frontiers in Cellular and Infection Microbiology, 2017)",
  "binders": {"B1": {"name": "HTE17-20 (17th to 20th exon of human tropoelastin) (domain or fragment)", "chain": "GVGTPAAAAAAAAAAKAAKYGAAAGLVPGGPGFGPGVVGVPGAGVPGVGVPGAGIPVVPGAGIPGAAVPGVVSPEAAAKAAAKAAKYGARPGVGVGGIPTYGVGAGGFPGFGVGVGGIPGVAGVPGVGGVPGVGGVPGVGIS"}},
  "conditions_in_all_cases": "both partners purified",
  "key": {"[1]": {"target": "T1, tag free LigB12 (amino acids 1,047–1,119 in LigB) (L. interrogans serovar Pomona)", "T1 construct": "LigB, 12th Ig-like domain, amino acids 1,047–1,119 in LigB; from pET28-SUMO; also called wild-type LigB12; LigB12 WT; source: E. coli Rosetta, purified (Ni-NTA, Ulp-1 digestion, second Ni-NTA, size exclusion)", "test": "SPR; Biacore 3000; tag free LigB12 immobilised on CM5 (about 1,000 RU); HTE truncates 0 to 5 μM injected in PBS at 30 μL/min, 25°C; 1:1 Langmuir model"}, "[2]": {"target": "T2, GST tagged LigB4 (amino acids 307–403 in LigB) (L. interrogans serovar Pomona)", "T2 construct": "Leptospira immunoglobulin-like protein B (LigB), 4th Ig-like domain, amino acids 307–403 in LigB; constructed into pGEX-6P-1 and pGEX-4T-2; also called GST-LigB4; 4th domain of LigB; source: E. coli Rosetta, purified (glutathione agarose)", "test": "ELISA; HTE17-20, HTE20, HTE20N, HTE20C or BSA coated (1 μM/well); GST tagged LigB4 or LigB12 titrated 0 to 10 μM, 1 h at 37°C; HRP anti-GST; KD from a saturation fit of OD630"}, "[3]": {"target": "T3, GST tagged LigB12 (amino acids 1,047–1,119 in LigB) (L. interrogans serovar Pomona)", "T3 construct": "LigB, 12th Ig-like domain, amino acids 1,047–1,119 in LigB; constructed into pGEX-6P-1 and pGEX-4T-2; also called GST-LigB12; 12th domain of LigB; source: E. coli Rosetta, purified (glutathione agarose)", "test": "ELISA; HTE17-20, HTE20, HTE20N, HTE20C or BSA coated (1 μM/well); GST tagged LigB4 or LigB12 titrated 0 to 10 μM, 1 h at 37°C; HRP anti-GST; KD from a saturation fit of OD630"}},
  "data": [
    {"binder": "B1", "values": [
      {"measurement": "Kd", "setting": "[1]", "value": 850, "unit": "nM"},
      {"measurement": "koff", "setting": "[1]", "value": 0.0011, "unit": "s⁻¹"},
      {"measurement": "kon", "setting": "[1]", "value": 1300, "unit": "M⁻¹ s⁻¹"},
      {"measurement": "Kd", "setting": "[2]", "value": 780, "unit": "nM"},
      {"measurement": "Kd", "setting": "[3]", "value": 780, "unit": "nM"}
    ]}
  ]
}
